# ± gives the uncertainty stated by the source.
# Assay: self-splicing fitness, log relative to wild type (ln ratio); higher = more splicing; Tetrahymena group I intron in knt gene, E. coli kanamycin selection, DiMSum; sequences stand for … in CUCUCU…GGAGGGAAAAGUUAUCAGGCAUGCACCUGGUAGCUAGUCUUUAAACCAAUAGAUUGCAUCGGUUUAAAAGGCAAGACCGUCAAAUUGCGGGAAAGGGGUCAACAGCCGUUCAGUACCAAGUCUCAGGGGAAACUUUGAGAUGGCCUUGCAAAGGGUAUGGUAAUAAGCUGACGGACAUGGUCCUAACCACGCAGCCAAGUCCUAAGUCAACAGAUCUUCUGUUGAUAUGGAUGCAGUUCACAGACUAAAUGUCGGUCGGGGAAGAUGUAUUCUUCUCAUAAGAUAUAGUCGGACCUCUCCUUAAUGGGAGCUAGCGGAUGAAGUGAUGCAACACUGGAGCCGCUGGGAACUAAUUUGUAUGCGAAAGUAUAUUGAUUAGUUUUGGAGUACUCGUGGUCG
# How it was run: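 Library with all eight P1ex-region intron nucleotides randomised, intron inside the knt kanamycin-resistance gene on pET-22b(+), in E. coli BL21(DE3). Cells grew overnight at 37°C or 30°C on LB agar with or without 25 μg/mL kanamycin (plus 100 μg/mL carbenicillin, 50 μM IPTG, 0.2% rhamnose), in six replicate transformations. Pooled colonies were amplicon-sequenced on Illumina HiSeq 2500. DiMSum fitness is the error-weighted combination of wild-type-normalised replicate fold changes, kanamycin versus none.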
Sequence,self-splicing fitness (ln) (30 °C),self-splicing fitness (ln) (37 °C)
AUGUAGCAAUAUUACGGGCG,-1.33 ± 0.091,-1.28 ± 0.1
AGGAAGCAAUAUUACGGUCU,-0.784 ± 0.079,0.265 ± 0.11
CUUUAGCAAUAUUACGAUUC,-3.16 ± 0.2,-2.6 ± 0.33
CCCUAGCAAUAUUACGAUGC,-3.12 ± 0.2,-2.22 ± 0.31
UGUAAGCAAUAUUACGGUCA,-0.349 ± 0.08,0.113 ± 0.12
AUGAAGCAAUAUUACGUGUA,-1.75 ± 0.082,-0.686 ± 0.093
GUACAGCAAUAUUACGCAUG,-2.26 ± 0.075,-1.03 ± 0.08
AUGCAGCAAUAUUACGGGUG,-3.33 ± 0.14,-1.62 ± 0.12
UACAAGCAAUAUUACGAGCC,-2.24 ± 0.48,
GAAGAGCAAUAUUACGCUUA,-3.49 ± 0.33,-1.3 ± 0.23
GGACAGCAAUAUUACGCCAA,-0.506 ± 0.14,-1.24 ± 0.23
GCGAAGCAAUAUUACGCCUG,-2.26 ± 0.19,-2.16 ± 0.24
ACAGAGCAAUAUUACGUCAU,-3.71 ± 0.17,-2.75 ± 0.27
GCUCAGCAAUAUUACGGAAC,-0.677 ± 0.073,0.0247 ± 0.11
GUUCAGCAAUAUUACGGCGG,-4.13 ± 0.47,-2.06 ± 0.38
UGUGAGCAAUAUUACGCAUG,-1.91 ± 0.15,-1.96 ± 0.22
AACUAGCAAUAUUACGUGAU,-1.71 ± 0.11,-1.09 ± 0.13
AUGUAGCAAUAUUACGAAUC,,-2.91 ± 0.29
UCCGAGCAAUAUUACGAUUC,-2.88 ± 0.43,-2.79 ± 0.48
GCACAGCAAUAUUACGCUAA,-1.6 ± 0.092,-0.281 ± 0.089
CCGAAGCAAUAUUACGUGUG,-2.19 ± 0.059,-0.959 ± 0.062
GUUCAGCAAUAUUACGAUUU,-0.241 ± 0.078,0.331 ± 0.087
ACCAAGCAAUAUUACGUCAU,-3.16 ± 0.096,-1.71 ± 0.09
UGCAAGCAAUAUUACGCGGG,-3.73 ± 0.27,-2.42 ± 0.22

Sequence,self-splicing fitness (ln) (30 °C),self-splicing fitness (ln) (37 °C)
AGAAAGCAAUAUUACGGGCG,-0.886 ± 0.1,-0.328 ± 0.12
UGGCAGCAAUAUUACGGUGG,-0.928 ± 0.079,-0.811 ± 0.11
GCCCAGCAAUAUUACGACCG,-2.84 ± 0.18,-1.55 ± 0.21
CCACAGCAAUAUUACGGUAU,-3.97 ± 0.19,-2.6 ± 0.16
CUACAGCAAUAUUACGGAUG,-0.683 ± 0.056,-0.187 ± 0.076
UGUAAGCAAUAUUACGUGAU,-3.5 ± 0.18,-2.05 ± 0.17
UGUGAGCAAUAUUACGUGCC,-2.51 ± 0.3,
CUGAAGCAAUAUUACGCGGG,-1.65 ± 0.17,-1.83 ± 0.19
AGCGAGCAAUAUUACGCUUA,-3.13 ± 0.27,0.422 ± 0.17
CUCCAGCAAUAUUACGUUAC,-3.6 ± 0.18,-2.42 ± 0.2
GGCCAGCAAUAUUACGUCUC,-1.1 ± 0.089,-0.447 ± 0.12
GGCCAGCAAUAUUACGGGGC,-5.35 ± 0.32,-4.33 ± 0.23
GGCGAGCAAUAUUACGAUAU,-2.12 ± 0.12,-0.859 ± 0.12
UUGCAGCAAUAUUACGCUGU,-2.71 ± 0.35,-1.23 ± 0.32
AGACAGCAAUAUUACGAAAU,-2.88 ± 0.17,-1.43 ± 0.14
UAUAAGCAAUAUUACGACGA,-0.51 ± 0.14,-1.36 ± 0.15
AACCAGCAAUAUUACGCCUC,-0.868 ± 0.13,-0.399 ± 0.16
CCUAAGCAAUAUUACGUGCA,-3.34 ± 0.18,-1.91 ± 0.17
CUUGAGCAAUAUUACGGUUU,-2.68 ± 0.16,-2.66 ± 0.29
GACCAGCAAUAUUACGUCGC,-1.89 ± 0.1,-0.411 ± 0.13
GUUGAGCAAUAUUACGUUUG,-4.75 ± 0.32,-2.6 ± 0.24
AGUCAGCAAUAUUACGGAUA,-0.982 ± 0.1,-0.318 ± 0.098
GCCUAGCAAUAUUACGCUGA,-1.69 ± 0.074,-0.266 ± 0.079
AUACAGCAAUAUUACGGUCU,0.331 ± 0.06,-0.16 ± 0.064
